Results reported in patent US20090214427A1 (LICENTIA, published 2009).
Non-standard residues stand in square brackets, D forms with d. No end group written: not given here. Sar = CNCC(=O)O

Target: recombinant wild-type (wt) human kallikrein 2 (human, UniProt P20151 25-261)
Test: cell-based or functional assay

Row | Binder | inhibition
1 | GAARRPFAAPSG [GAARRPFAAPSG (SEQ ID NO:12)] | 24%
2 | GPARRPAPVTAG-OH [GPARRPAPVTAG (SEQ ID NO:20)] | 49%
3 | RRPAG-OH [RRPAG (SEQ ID NO:41)] | 0%
4 | GRRPFPG-OH [GRRPFPG (SEQ ID NO:44)] | 0%
5 | GPVTAG-OH [GFVTAG as printed in Table 6 (SEQ ID NO:37)] | 0%
6 | GAARRPFPAPG [GAARRPFPAPG (SEQ ID NO:51)] | 69%
7 | GPARAPFPVTAG-OH [GPARAPFPVTAG (SEQ ID NO:18)] | 0%
8 | GPFPVTAG-OH [GFFPVTAG as printed in Table 6 (SEQ ID NO:35)] | 0%
9 | AARRPFPG [AARRPFPG (SEQ ID NO:47)] | 28%
10 | SRFKVWAAAG-OH [SRFKVWAAAG (SEQ ID NO:62)] | 30%
11 | GRRPFPVTAG-OH [… as printed in Table 6 (SEQ ID NO:33)] | 2%
12 | Ac-ARFKVWWG [Ac-ARFKVWWG (SEQ ID NO:76)] | 93%
13 | GPARRPFPVAAG-OH [GPARRPFPVAAG (SEQ ID NO:23)] | 45%
14 | RRPAP [RRPAP (SEQ ID NO:39)] | 0%
15 | AAARRPAPG [AAARRPAPG (SEQ ID NO:46)] | 51%
16 | SRFKVAWAAG-OH [SRFKVAWAAG (SEQ ID NO:61)] | 10%
17 | GPARRPFG-OH [GPARRPFG (SEQ ID NO:27)] | 0%
18 | Ac-ARFKVWWGG [Ac-ARFKVWWGG (SEQ ID NO:77)] | 92%
19 | GPARRPG-OH [GFARRFG as printed in Table 6 (SEQ ID NO:28)] | 4%
20 | ARFKVWWG [ARFKVWWG (SEQ ID NO:75)] | 94%
21 | GAARRPAPAPSG [GAARRPAPAPSG (SEQ ID NO:11)] | 75%
22 | SRFAVWWAAG-OH [SRFAVWWAAG (SEQ ID NO:59)] | 0%

Row | Binder | inhibition
23 | Ac-ARFKVWWAA [Ac-ARFKVWWAA (SEQ ID NO:81)] | 93%
24 | GAAARPFPAPSG [GAAARPFPAPSG (SEQ ID NO:8)] | 0%
25 | GFPVTAG-OH [GFFVTAG as printed in Table 6 (SEQ ID NO:36)] | 0%
26 | GAARRPFPVTAG [GAARRPFPVTAG (SEQ ID NO:16)] | 61%
27 | GARRPFPVTAG [GARRPFPVTAG (SEQ ID NO:32)] | 27%
28 | RRPFG-OH [RRPFG (SEQ ID NO:42)] | 0%
29 | GAARR[Sar]FPAPG [GAARR-Sar-FPAPG (SEQ ID NO:52)] | 0%
30 | GPARRPFPATAG-OH [GPARRPFPATAG (SEQ ID NO:22)] | 58%
31 | GVTAG-OH [GVTAG (SEQ ID NO:38)] | 0%
32 | Ac-SRFKVWWG [Ac-SRFKVWWG (SEQ ID NO:74)] | 86%
33 | GRRPAPG-OH [GRRPAPG (SEQ ID NO:43)] | 0%
34 | GPARRPFAVTAG-OH [GPARRPFAVTAG (SEQ ID NO:21)] | 17%
35 | GRPFPVTAG-OH [… as printed in Table 6 (SEQ ID NO:34)] | 0%
36 | RFKVWWAAG-OH [RFKVWWAAG (SEQ ID NO:65)] | 22%
37 | AARRPAPG-OH [AARRPAPG (SEQ ID NO:45)] | 36%
38 | GAARRAFPAPSG [GAARRAFPAPSG (SEQ ID NO:10)] | 0%
39 | SRFKVG-OH [SRFKVG (SEQ ID NO:71)] | 7%
40 | GPARRG-OH [GPARRG (SEQ ID NO:29)] | 8%
41 | FKVWWAAG [FKVWWAAG (SEQ ID NO:66)] | 0%
42 | GPARRPFPVG-OH [GPARRPFPVG (SEQ ID NO:25)] | 37%
43 | GPARRPFPG-OH [GPARRPFPG (SEQ ID NO:26)] | 33%
44 | Ac-ARFKVWWA [Ac-ARFKVWWA (SEQ ID NO:80)] | 94%

Row | Binder | inhibition
45 | ARFKVWWGG [ARFKVWWGG (SEQ ID NO:78)] | 93%
46 | GAARRPFPAPAG [GAARRPFPAPAG (SEQ ID NO:14)] | 78%
47 | GPAARPFPVTAG-OH [GPAARPFPVTAG (SEQ ID NO:17)] | 0%
48 | GPARRAFPVTAG-OH [GPARRAFPVTAG (SEQ ID NO:19)] | 0%
49 | SRFKAWWAAG-OH [SRFKAWWAAG (SEQ ID NO:60)] | 39%
50 | GAARR[Sar]F[Sar]APG [GAARR-Sar-F-Sar-APG (SEQ ID NO:54)] | 0%
51 | RRPFP [RRPFP (SEQ ID NO:40)] | 0%
52 | SRFKVWWAG-OH [SRFKVWWAG (SEQ ID NO:68)] | 80%
53 | AAARRPFPG [AAARRPFPG (SEQ ID NO:48)] | 37%
54 | GAARAPFPAPSG [GAARAPFPAPSG (SEQ ID NO:9)] | 0%
55 | ARFKVWWA [ARFKVWWA (SEQ ID NO:79)] | 95%
56 | GPARG-OH [GPARG (SEQ ID NO:30)] | 0%
57 | WWAAG-OH [WWAAG (SEQ ID NO:67)] | 0%
58 | SRFKG-OH [SRFKG (SEQ ID NO:72)] | 0%
59 | GAARRPFPAPSG [GAARRPFPAPSG (SEQ ID NO:7)] | 77%
60 | GPARRPFPVTG-OH [GPARRPFPVTG (SEQ ID NO:24)] | 48%
61 | GAARRPF[Sar]APG [GAARRPF-Sar-APG (SEQ ID NO:53)] | 24%
62 | ARFKVWWA-NH2 [ARFKVWWA(CONH2) (SEQ ID NO:82)] | 86%
63 | GAARRPFPAASG [GAARRPFPAASG (SEQ ID NO:13)] | 69%
64 | SRAKVWWAAG-OH [SRAKVWWAAG (SEQ ID NO:58)] | 0%
65 | SRFKVWG-OH [SRFKVWG (SEQ ID NO:70)] | 8%
